Experimental findings from article PMC3229514, “Both hMutSα and hMutSß DNA Mismatch Repair Complexes Participate in 5-Fluorouracil Cytotoxicity” are described below.

For one series, the target named is hMutSβ (hMSH2-hMSH3) (human, UniProt P43246;P20585 1-934;1-1137). The series can be described thus: SPR (IAsys); 10 mM Mg2+; EMSA: 100 nM hMutSβ, 20 mM HEPES pH 7.6, 1 mM EDTA, 1 mM DTT, 10% glycerol, 100 µg poly(dI-dC), 10 µl; IAsys: 100 nM protein, 25 mM Tris-Cl pH 7.8, 20 mM NaCl. Particulars: protein: recombinant, copies: 1;1, label: 5'-32P on S5 (EMSA), 5'-biotin on S5 (IAsys).

The next series has as its target hMutSα (human, UniProt P43246;P52701 1-934;1-1360). Described as above. Particulars: protein: recombinant; copies: 1;1; label: 5'-32P on S5 (EMSA); 5'-biotin on S5 (IAsys); blunt; 5FdU opposite A by the printed complement. Background: In EMSA bound probe runs differently from free probe, usually more slowly.

B1: 5-FU-containing 38-mer duplex (dsDNA)
DNA 1: TTTCTGACTTGGATACCAUCTATCTATCTATAAAATAT
DNA 2: ATATTTTATAGATAGATAGATGGTATCCAAGTCAGAAA
modifications: 5-fluoro-2'-deoxyuridine at position 19 of strand 1 (written U)
B1: the binding signal in the series with hMutSβ (hMSH2-hMSH3) (blunt, 5FdU opposite A by the printed complement) was around 1.3 fold vs complementary DNA; with hMutSα, ~2 fold vs hMutSβ on same DNA.

B2: AA insertion/deletion loop duplex (dsDNA)
DNA 1: TTTCTGACTTGGATACCATCTATCTATCTATAAAAAATAT
DNA 2: ATATTTTATAGATAGATAGATGGTATCCAAGTCAGAAA
B2: the binding signal with hMutSβ (hMSH2-hMSH3) (blunt ends, 2-nt AA loop in strand 1 (40 nt vs 38 nt)) was around 1.8 fold vs complementary DNA.
